The assay has as its target T1, endogenous ZO1 with N-terminal mNeonGreen (CRISPR knock-in, MDCK-II) (dog (endogenous in MDCK-II)), O97758.
T1 chain: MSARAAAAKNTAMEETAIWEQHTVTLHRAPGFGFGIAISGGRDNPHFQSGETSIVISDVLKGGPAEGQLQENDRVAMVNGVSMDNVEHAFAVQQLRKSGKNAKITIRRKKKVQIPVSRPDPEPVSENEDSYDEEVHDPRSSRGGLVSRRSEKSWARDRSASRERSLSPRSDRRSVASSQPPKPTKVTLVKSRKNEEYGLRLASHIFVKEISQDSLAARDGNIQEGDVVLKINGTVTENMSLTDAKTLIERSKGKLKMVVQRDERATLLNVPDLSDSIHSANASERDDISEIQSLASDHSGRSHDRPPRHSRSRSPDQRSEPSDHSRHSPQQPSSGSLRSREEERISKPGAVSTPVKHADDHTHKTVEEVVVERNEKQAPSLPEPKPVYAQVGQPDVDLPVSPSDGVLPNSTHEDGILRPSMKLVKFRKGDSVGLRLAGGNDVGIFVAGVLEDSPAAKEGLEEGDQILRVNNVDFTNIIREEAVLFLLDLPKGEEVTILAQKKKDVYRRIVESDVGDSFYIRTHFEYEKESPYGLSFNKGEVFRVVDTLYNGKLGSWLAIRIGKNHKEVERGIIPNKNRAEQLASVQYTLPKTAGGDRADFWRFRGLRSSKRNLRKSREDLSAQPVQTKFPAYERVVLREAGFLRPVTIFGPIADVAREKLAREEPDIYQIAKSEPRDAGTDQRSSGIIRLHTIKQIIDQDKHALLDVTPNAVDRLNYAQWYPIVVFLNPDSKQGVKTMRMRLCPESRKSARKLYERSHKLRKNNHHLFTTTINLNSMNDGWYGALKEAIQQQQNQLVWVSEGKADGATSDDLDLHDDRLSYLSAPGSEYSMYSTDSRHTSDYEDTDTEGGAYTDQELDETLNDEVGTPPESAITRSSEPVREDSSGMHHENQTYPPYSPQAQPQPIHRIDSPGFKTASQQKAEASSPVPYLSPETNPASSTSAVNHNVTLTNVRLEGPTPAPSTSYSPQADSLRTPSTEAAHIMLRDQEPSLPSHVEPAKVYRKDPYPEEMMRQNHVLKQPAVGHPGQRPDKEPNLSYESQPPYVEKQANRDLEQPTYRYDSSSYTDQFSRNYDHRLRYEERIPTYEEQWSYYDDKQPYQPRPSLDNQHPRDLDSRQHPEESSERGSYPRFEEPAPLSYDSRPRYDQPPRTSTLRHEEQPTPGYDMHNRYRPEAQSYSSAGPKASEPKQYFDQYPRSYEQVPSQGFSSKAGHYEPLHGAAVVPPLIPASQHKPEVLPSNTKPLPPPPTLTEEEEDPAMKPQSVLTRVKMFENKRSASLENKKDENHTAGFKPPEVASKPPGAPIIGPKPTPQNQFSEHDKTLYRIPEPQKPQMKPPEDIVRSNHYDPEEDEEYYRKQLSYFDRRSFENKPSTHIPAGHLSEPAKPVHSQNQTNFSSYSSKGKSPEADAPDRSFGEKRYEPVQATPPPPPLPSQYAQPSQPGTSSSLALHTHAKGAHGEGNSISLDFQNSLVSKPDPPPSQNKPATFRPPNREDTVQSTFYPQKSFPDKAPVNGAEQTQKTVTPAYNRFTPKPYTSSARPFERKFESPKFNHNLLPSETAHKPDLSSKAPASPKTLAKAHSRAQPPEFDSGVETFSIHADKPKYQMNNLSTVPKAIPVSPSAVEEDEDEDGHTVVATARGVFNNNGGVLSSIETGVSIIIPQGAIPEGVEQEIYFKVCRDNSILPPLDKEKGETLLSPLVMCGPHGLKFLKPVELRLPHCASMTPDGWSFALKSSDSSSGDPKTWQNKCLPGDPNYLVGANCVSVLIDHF
In words: FCS molecular brightness. The following applies: remark: other sources report otherwise.

B1: endogenous ZO1 with N-terminal mNeonGreen (CRISPR knock-in, MDCK-II), O97758 1-1769 (natural protein)
chain: T1 chain
The molecule B1 returned a stoichiometry N of 5.

Values taken from article doi:10.1101/589580.
